B1: 4384416: IMAGE clone protein: BTK, Bruton agammaglobulinemia tyrosine kinase (protein, UniProt Q06187 2-659, looked up)
Tyrosine-protein kinase BTK: AAVILESIFLKRSQQKKKTSPLNFKKRLFLLTVHKLSYYEYDFERGRRGSKKGSIDVEKITCVETVVPEKNPPPERQIPRRGEESSEMEQISIIERFPYPFQVVYDEGPLYVFSPTEELRKRWIHQLKNVIRYNSDLVQKYHPCFWIDGQYLCCSQTAKNAMGCQILENRNGSLKPGSSHRKTKKPLPPTPEEDQILKKPLPPEPAAAPVSTSELKKVVALYDYMPMNANDLQLRKGDEYFILEESNLPWWRARDKNGQEGYIPSNYVTEAEDSIEMYEWYSKHMTRSQAEQLLKQEGKEGGFIVRDSSKAGKYTVSVFAKSTGDPQGVIRHYVVCSTPQSQYYLAEKHLFSTIPELINYHQHNSAGLISRLKYPVSQQNKNAPSTAGLGYGSWEIDPKDLTFLKELGTGQFGVVKYGKWRGQYDVAIKMIKEGSMSEDEFIEEAKVMMNLSHEKLVQLYGVCTKQRPIFIITEYMANGCLLNYLREMRHRFQTQQLLEMCKDVCEAMEYLESKQFLHRDLAARNCLVNDQGVVKVSDFGLSRYVLDDEYTSSVGSKFPVRWSPPEVLMYSKFSSKSDIWAFGVLMWEIYSLGKMPYERFTNSETAEHIAQGLRLYRPHLASEKVYTIMYSCWHEKADERPTFKILLSNILDVMDEES
B2: 4398416: IMAGE clone protein: Csk, c-src tyrosine kinase (protein, UniProt P41241 2-450, looked up)
Tyrosine-protein kinase CSK: SAIQAAWPSGTECIAKYNFHGTAEQDLPFCKGDVLTIVAVTKDPNWYKAKNKVGREGIIPANYVQKREGVKAGTKLSLMPWFHGKITREQAERLLYPPETGLFLVRESTNYPGDYTLCVSCEGKVEHYRIMYHASKLSIDEEVYFENLMQLVEHYTTDADGLCTRLIKPKVMEGTVAAQDEFYRSGWALNMKELKLLQTIGKGEFGDVMLGDYRGNKVAVKCIKNDATAQAFLAEASVMTQLRHSNLVQLLGVIVEEKGGLYIVTEYMAKGSLVDYLRSRGRSVLGGDCLLKFSLDVCEAMEYLEGNNFVHRDLAARNVLVSEDNVAKVSDFGLTKEASSTQDTGKLPVKWTAPEALREKKFSTKSDVWSFGILLWEIYSFGRVPYPRIPLKDVVPRVEKGYKMDAPDGCPPAVYEVMKNCWHLDAATRPTFLQLREQLEHIKTHELHL
B3: 4498209: IMAGE clone protein: EPHB1, EphB1 (protein, UniProt P54762 18-984, looked up)
Ephrin type-B receptor 1: MEETLMDTRTATAELGWTANPASGWEEVSGYDENLNTIRTYQVCNVFEPNQNNWLLTTFINRRGAHRIYTEMRFTVRDCSSLPNVPGSCKETFNLYYYETDSVIATKKSAFWSEAPYLKVDTIAADESFSQVDFGGRLMKVNTEVRSFGPLTRNGFYLAFQDYGACMSLLSVRVFFKKCPSIVQNFAVFPETMTGAESTSLVIARGTCIPNAEEVDVPIKLYCNGDGEWMVPIGRCTCKPGYEPENSVACKACPAGTFKASQEAEGCSHCPSNSRSPAEASPICTCRTGYYRADFDPPEVACTSVPSGPRNVISIVNETSIILEWHPPRETGGRDDVTYNIICKKCRADRRSCSRCDDNVEFVPRQLGLTECRVSISSLWAHTPYTFDIQAINGVSSKSPFPPQHVSVNITTNQAAPSTVPIMHQVSATMRSITLSWPQPEQPNGIILDYEIRYYEKEHNEFNSSMARSQTNTARIDGLRPGMVYVVQVRARTVAGYGKFSGKMCFQTLTDDDYKSELREQLPLIAGSAAAGVVFVVSLVAISIVCSRKRAYSKEAVYSDKLQHYSTGRGSPGMKIYIDPFTYEDPNEAVREFAKEIDVSFVKIEEVIGAGEFGEVYKGRLKLPGKREIYVAIKTLKAGYSEKQRRDFLSEASIMGQFDHPNIIRLEGVVTKSRPVMIITEFMENGALDSFLRQNDGQFTVIQLVGMLRGIAAGMKYLAEMNYVHRDLAARNILVNSNLVCKVSDFGLSRYLQDDTSDPTYTSSLGGKIPVRWTAPEAIAYRKFTSASDVWSYGIVMWEVMSFGERPYWDMSNQDVINAIEQDYRLPPPMDCPAALHQLMLDCWQKDRNSRPRFAEIVNTLDKMIRNPASLKTVATITAVPSQPLLDRSIPDFTAFTTVDDWLSAIKMVQYRDSFLTAGFTSLQLVTQMTSEDLLRIGITLAGHQKKILNSIHSMRVQISQSPTAMA

Key:
pEY = assay: In vitro kinase library screen: activity towards pEY; assay type: biochemical; conditions: 5 ul of expressed protein
Method: Proteins were produced in an in vitro transcription and translation reaction. […] The unbound components of the reaction containing endogenous kinases were removed by three washes with TT-buffer (25 mM Tris-HCl buffer pH 7.4 and 0.004% Triton), two five minutes washings with high-salt wash buffer (25 mM Tris-HCl buffer pH 7.4, 0.004% Triton, 1M NaCl and 5 mM DTT) and 3 more washes with TT-buffer. To these immobilized and purified proteins a tyrosine kinase substrate, 5 nM pEY (poly Glu-Tyr, Sigma, MO), was added in a 50 μl reaction solution containing 5 mM MgCl2, 5 mM MnCl2, 100 μM ATP, 25 mM Tris-HCl buffer pH 7.4, 0.05 mM Na3VO4, 0.004% TritonX-100, 2 mM DTT and EDTA-free protease inhibitor (Roche Molecular Biochemicals). This mixture was incubated with shaking at room temperature overnight to allow phosphorylation of the pEY substrate by the immobilized kinases. Following this incubation, 45 μl of this mixture was transferred to a streptavidin or avidin-coated NPT IPR plate coated with biotinylated anti-phosphotyrosine antibody (PY20, Zymed labs, CA) followed by incubation for 30 minutes at room temperature to allow the binding of the phosphorylated pEY substrate to the PY20 coated NPT plate. Following this binding step, 50 ng Sulfo-TAG labeled anti-phosphotyrosine in buffer containing 25 mM Tris-HCl buffer pH 7.4, 5 mM MgCl2, 0.05 mM Na3VO4, 0.004% TritonX-100, 2 mM DTT and 0.05% IgG was added followed by incubation at room temperature for 30 mm. The unbound reagents were removed by one time washing with water, and the TAG label was detected in presence of 150 μl IPR assay buffer (0.4 mM Gly-Gly buffer, pH 7.8, 1 mM EDTA, 0.1 M TPA). The ECL signals were measured using an imaging plate reader.
(§1) Proteins were produced in an in vitro transcription and translation reaction as described in the Materials and Methods. […] The reaction was stopped by mixing with BB2 buffer. Biotinylated proteins from 50 μl of the mixture (representing 0.5 μl to 5 μl of TnT reaction) were immobilized onto streptavidin or avidin coated NPT-IPR plates by shaking at room temperature for 45 min. The activity of the immobilized protein towards pEY or autophosphorylation was further assayed by the methods described in examples 7 and 8.

[1] = tested on: autophosphorylation (phosphotyrosine); assay: In vitro kinase library screen: autophosphorylation; assay type: biochemical
Method: Proteins were produced from DNA plasmids of Mock Luciferase, Promega, tyrosine kinase clone Spleen Tyrosine kinase (SYK, IMAGE ID# 3870426) and Eph receptor-A7 (EphA7, IMAGE ID# 3991628) (Incyte Genomics, CA) and immobilized on streptavidin or avidin coated NPT-IPR plates as described in the Example 7. To promote autophosphorylation in these immobilized and purified proteins, Mn++ ions were added in a 50 μl reaction containing 5 mM MgCl2, 5 mM MnCl2, 100 μM ATP, 25 mM Tris-HCl buffer pH 7.4, 0.05 mM Na3VO4, 0.004% TritonX-100, 2 mM DTT and EDTA-free protease inhibitor (Roche Molecular Biochemicals). This mixture was incubated with shaking at room temperature overnight to allow autophosphorylation. Following this incubation, wells were washed 2 times with TT-buffer and 2 times with water. Following this step, 50 ng Sulfo-TAG labeled anti-phosphotyrosine in buffer containing 25 mM Tris-HCl buffer pH 7.4, 5 mM MgCl2, 0.05 mM Na3VO4, 0.004% TritonX-100, 2 mM DTT and 0.05% IgG in a final volume of 50 μl was added followed by incubation at room temperature for 45 min. The unbound reagents were removed by one time washing with water, and the TAG label was detected in presence of 150 μl IPR assay buffer (0.4 mM Gly—Gly buffer, pH 7.8, 1 mM EDTA, 0.1 M TPA). The ECL signals were measured using an imaging plate reader.
as §1

Row | Molecule | HTS signal (pEY) | ECL signal [1]
1 | B1 | 793,874 | 1,503,772
2 | B2 | 683,039 | 349,847
3 | B3 | 853 | 3,138
